From patent US20240207421A1, “NERVE TARGETING PEPTIDES AND METHODS OF USE” (ALUME BIOSCIENCES, INC., priority 2020, published 2024)

Biological target: Human MPZ (human) (UniProt P25189)
Assay: phage display, NGS count
Conditions: not given

Sequence of Human MPZ (human) (P25189 30-153 limits assumed): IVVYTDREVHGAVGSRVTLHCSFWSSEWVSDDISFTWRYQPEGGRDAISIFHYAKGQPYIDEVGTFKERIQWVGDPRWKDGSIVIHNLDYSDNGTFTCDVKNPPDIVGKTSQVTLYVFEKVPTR

Substance | Count
YAPWRVF (peptide) | 37
HPFPRFD (peptide) | 45
GPVVSGM (peptide) | 46
FRVTQTA (peptide) | 41
YGQSITE (peptide) | 37
HHPLFID (peptide) | 39
GSWSSGF (peptide) | 52
IEQVGWR (peptide) | 38
HNQLLYT (peptide) | 38
VVPLKWI (peptide) | 40
KLPTLSV (peptide) | 44
WTSVATA (peptide) | 41
LVNPFPE (peptide) | 39
NPISPRN (peptide) | 38
DRYLLNQ (peptide) | 40
STHEWRT (peptide) | 45
MYHDSVS (peptide) | 47
QIAHLEY (peptide) | 50
YSSLTSN (peptide) | 38
THSTDLS (peptide) | 37
LWAKRDA (peptide) | 38
AMSNLSY (peptide) | 45

Substance | Count
FEHMAVT (peptide) | 42
LSPPRIM (peptide) | 43
TTWPNTA (peptide) | 45
NASVPPK (peptide) | 42
SPNTNSH (peptide) | 40
TLLHYSA (peptide) | 40
MIHTRQT (peptide) | 41
FSPRDVS (peptide) | 39
WMTNLDP (peptide) | 43
LVLQTTP (peptide) | 37
SETESYM (peptide) | 41
FSTTGRG (peptide) | 39
GLWRHTM (peptide) | 40
SYLPPFI (peptide) | 41
YPQARTS (peptide) | 46
YEGERGA (peptide) | 39
AWTMRAS (peptide) | 39
FALPAGL (peptide) | 41
KTPILAS (peptide) | 38
GGSKVWG (peptide) | 40
KQPAMEN (peptide) | 37
LPNANNL (peptide) | 41

Substance | Count
ISSVTVV (peptide) | 37
HLDSRRH (peptide) | 46
LISPTAR (peptide) | 37
FPSYTIS (peptide) | 40
ALPISYL (peptide) | 42
NMSHSNR (peptide) | 46
HPLMVPS (peptide) | 41
YMKHSPG (peptide) | 45
NPTSEGA (peptide) | 37
NTASMTT (peptide) | 38
LPAESHW (peptide) | 45
WPRPIQI (peptide) | 41
SNALSYF (peptide) | 41
FMSDVDH (peptide) | 37
SVAYVPV (peptide) | 46
TTLVVTA (peptide) | 42
VPLAYLR (peptide) | 40
SAHSVVE (peptide) | 38
KRNLWDI (peptide) | 40
LVLSNPR (peptide) | 46
VHTPYRS (peptide) | 41
SGHGAFR (peptide) | 42

Biological target: Human Myelin PLP (human) (UniProt P60201)
Assay: phage display, NGS count
Conditions: not given

Sequence of Human Myelin PLP (human) (P60201 2-277 limits assumed): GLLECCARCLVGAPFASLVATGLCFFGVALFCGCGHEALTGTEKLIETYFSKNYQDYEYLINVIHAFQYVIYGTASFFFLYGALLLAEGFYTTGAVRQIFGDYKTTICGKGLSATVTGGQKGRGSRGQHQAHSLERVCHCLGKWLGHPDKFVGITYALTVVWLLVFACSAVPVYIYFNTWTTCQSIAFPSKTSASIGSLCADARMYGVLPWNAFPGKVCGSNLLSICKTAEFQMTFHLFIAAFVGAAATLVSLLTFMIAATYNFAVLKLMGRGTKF

Substance | Count
YTPMGTG (peptide) | 50
NPSHHPR (peptide) | 37
LTHHFAP (peptide) | 40
GLIRHYT (peptide) | 66
FKMPIPT (peptide) | 34
HQGSRTY (peptide) | 53
RFELPAP (peptide) | 52
SMWSQFR (peptide) | 34
ATLKPYR (peptide) | 68
EKPSWTR (peptide) | 33
LRFQIPP (peptide) | 44

Biological target: Human Myelin PLP (human) (UniProt P60201)
Assay: phage display R3, NGS count
Conditions: not given

Substance | Count
YTPMGTG (peptide) | 50
NPSHHPR (peptide) | 37
LTHHFAP (peptide) | 40
GLIRHYT (peptide) | 66
FKMPIPT (peptide) | 34
HQGSRTY (peptide) | 53
RFELPAP (peptide) | 52
SMWSQFR (peptide) | 34
ATLKPYR (peptide) | 68
EKPSWTR (peptide) | 33
LRFQIPP (peptide) | 44
FPVVTRN (peptide) | 42
MTPHTSC (peptide) | 62
GPFLFTV (peptide) | 47

Test system: Human Myelin PLP
Assay: Phage display library screening (Example 2, Python script analysis), binding to Human Myelin PLP
Conditions: combined unique sequence count, Python/R script analysis
Method: (§1) Phage display library screens were used to identify peptides that bind to target proteins (including specific laminin trimers) that are expressed in human nerves, as described in Table 3. These screens were also carried out to identify peptides that could bind selectively to nerves versus muscle. Such peptides could therefore be useful for systemic in-vivo labeling of nerves during fluorescence assisted surgery. Specifically, m 13 phage libraries expressing 7 or 12 random amino acid peptides, or a cyclic peptide CX7C, on the N-terminus of the minor coat protein pIII (New England Biolabs; NEB) were processed through multiple rounds of selection for binding to target proteins expressed in nerves, or to excised human nerves, nerve extracts, or muscle, as described further below.
(§2) For screening against the specified target proteins in Table 1, including LN211, LN411, LN421, and LN521, the phage library was processed by up to 4 binding and wash cycles. For selection, phage libraries were incubated for up to 24 hours at 4° C. in 96 well plates that had been coated with one of the target proteins. Plates were then washed with PBS and phage were eluted using 0.2M glycine pH 2.0. Phage supernatants where then neutralized with Tris pH 9.0 prior to plating on TGI bacteria and LB agar plates. Colonies were counted to determine titer followed by DNA preparation of pools of phage and NextGen sequencing. After rounds of selection, phage were pooled and amplified for iterative selection. Phage that were bound at each round were sequenced. NextGen sequencing of pools after 2, 3 and 4 rounds of selection was used to isolate candidate sequences that were analyzed further to identify those that specifically bound each unique target protein.
(§3) Python Script Analysis: For all NEB sequence datasets, a python script was used to translate, trim, and filter the peptide sequences. The script translated the nucleotide sequences, translating amber codons as glutamine in peptide sequences, and then trimmed the end sequences that come from the vector. Secondly, the script combined the unique counts of trimmed peptides with identical sequences. […] Another python script was used to group peptides from different assays according to protein target (Myelin Protein Zero, Myelin Proteolipid Protein, Myelin Basic Protein, and Nidogen-2) and also combine the unique sequence counts for each peptide. An R script was written to merge the peptide sequences from different data files and determine peptides specific for each protein target but absent from different protein binding datasets. Peptide sequences were ranked by unique sequence count.

Substance | Count
GIPSSKN (Myelin PLP-binding peptide) | 28
YSSRLTA (Myelin PLP-binding peptide) | 29
TLWAQKT (Myelin PLP-binding peptide) | 28
VPGHISG (Myelin PLP-binding peptide) | 27
SALISTR (Myelin PLP-binding peptide) | 32
EPSSFTF (Myelin PLP-binding peptide) | 31
FRIDKSM (Myelin PLP-binding peptide) | 26
QPNMLKP (Myelin PLP-binding peptide) | 33
IDRVRGL (Myelin PLP-binding peptide) | 29
LPLRLHA (Myelin PLP-binding peptide) | 31
SVMWMTP (Myelin PLP-binding peptide) | 29
TRASYPQ (Myelin PLP-binding peptide) | 32
TTTIADM (Myelin PLP-binding peptide) | 26
YSDTYKH (Myelin PLP-binding peptide) | 30
WSRISVD (Myelin PLP-binding peptide) | 26
GLWGPSL (Myelin PLP-binding peptide) | 26
HKAPLGT (Myelin PLP-binding peptide) | 29
KPSASIY (Myelin PLP-binding peptide) | 26
WNTADRL (Myelin PLP-binding peptide) | 34
MKIMPMD (Myelin PLP-binding peptide) | 26
YTWTPSR (Myelin PLP-binding peptide) | 28
LMQKPSI (Myelin PLP-binding peptide) | 29
SVLPDKL (Myelin PLP-binding peptide) | 28
GPAAVII (Myelin PLP-binding peptide) | 29
SAQSRSF (Myelin PLP-binding peptide) | 26
EKSTTVA (Myelin PLP-binding peptide) | 30
GKSYSQI (Myelin PLP-binding peptide) | 31
TGISSTP (Myelin PLP-binding peptide) | 27

Test system: Human Nidogen-2
Assay: Phage display library screening (Example 2, Python script analysis), binding to Human Nidogen-2
Conditions: combined unique sequence count, Python/R script analysis
Method: as §1, §2, §3

Substance | Count
CSSSAPRIC (Nidogen-2-binding peptide) | 9
WLAAGSQ (Nidogen-2-binding peptide) | 6
LHITPEV (Nidogen-2-binding peptide) | 6
YNHTMMY (Nidogen-2-binding peptide) | 7
CSFKMNQKC (Nidogen-2-binding peptide) | 8
LVHPFHG (Nidogen-2-binding peptide) | 8
QLLESRT (Nidogen-2-binding peptide) | 6
QMDAKHM (Nidogen-2-binding peptide) | 6
ATYNMSQ (Nidogen-2-binding peptide) | 7
ARMAFSL (Nidogen-2-binding peptide) | 7
CNLATSLQC (Nidogen-2-binding peptide) | 6
TIASLLV (Nidogen-2-binding peptide) | 6
CRSPHEPMC (Nidogen-2-binding peptide) | 6
EAMMHRN (Nidogen-2-binding peptide) | 6
ALYLPGR (Nidogen-2-binding peptide) | 7
CVDKMASVC (Nidogen-2-binding peptide) | 6
LSIRGLT (Nidogen-2-binding peptide) | 6
TPWLPTI (Nidogen-2-binding peptide) | 7
CKDGHIRHC (Nidogen-2-binding peptide) | 6
NILSQVN (Nidogen-2-binding peptide) | 6
QTLRPKQ (Nidogen-2-binding peptide) | 6
HSRLPTP (Nidogen-2-binding peptide) | 13
CIHHKGVLC (Nidogen-2-binding peptide) | 6
CYSAPTKSC (Nidogen-2-binding peptide) | 6
GLRTMEP (Nidogen-2-binding peptide) | 7
